Source: patent US20250369024A1, “Acyloin Condensation Reactions, Enzymes, and Products Thereof” (Mojia Biotech Pte. Ltd., priority 2023, published 2025)

How the values were obtained:
Assay type in all cases: cell-based, E. coli
[1] = tested on: Acetaldehyde; experiment: HACS screening, acetaldehyde-C1 condensation (resting cells), lactic acid; details: 20 mM acetaldehyde and 20 mM formate, 3 hours
From the text: (§1) To implement the C1 elongation pathway for lactic acid production in vivo, we engineered vectors to independently control expression of various HACS candidates and the acyl-CoA transferase from Clostridium aminobutyricum (CaAbfT), with HACS under control of the IPTG-inducible T7 promoter in pCDFDuet-1 and CaAbfT under control of a cumate-inducible T5 promoter in pETDuet-1. As a host for these vectors, we used an engineered strain of E. coli based on MG1655(DE3) with knockouts for formaldehyde (ΔfrmA) and formate (ΔfdhF ΔfdnG ΔfdoG) oxidation as well as for glycolate utilization (ΔglcD).
(§2) In vivo product synthesis was conducted using M9 minimal media (6.78 g/L Na2HPO4, 3 g/L KH2PO4, 1 g/L NH4Cl, 0.5 g/L NaCl, 2 mM MgSO4, 100 μM CaCl2), and 15 μM thiamine-HCl) unless otherwise stated. Cells were initially grown in 96-deep well plates (USA Scientific, Ocala, FL) containing 0.5 mL of the above media further supplemented with 20 g/L glycerol, 10 g/L tryptone, and 5 g/L yeast extract. […]
(§3) Cells from the above pre-cultures were then centrifuged (4000 rpm, 22° C.), washed with the above minimal media without any carbon source, and resuspended with 1 mL of above minimal media containing indicated amounts of carbon source. […] After incubation at 30° C. for 3 hours, the cells were pelleted by centrifugation and the media was analyzed using HPLC.

[2] = tested on: glyoxylic acid; experiment: HACS screening, glyoxylic acid-C1 condensation (resting cells), tartronic acid; details: 5 mM glyoxylic acid and 20 mM formate; 1 hour
From the text: as §1, with “tartronic” for “lactic”
as §2, with “containing 0.2” for “containing 0.5”
as §3, with “1 hour,” for “3 hours,”

[3] = tested on: Succinic semialdehyde; experiment: HACS screening, succinic semialdehyde-C1 condensation (resting cells), 2-hydroxyglutaric acid; details: 20 mM succinic semialdehyde and 20 mM formate, 3 hours
From the text: as §1, with “2-hydroxyglutaric” for “lactic”
as §2, §3

B1: RuHACL: Engineered 2-hydroxyphytanoyl-CoA lyase [Rhodospirillales bacterium URHD0017], SEQ ID NO: 1 (protein)
chain: MSEVDGATLIARSLKQQGIDHLFGVVGFPITAIAAAAQKEGVAYLGMRNEQSAAYAAAAYGYLTGRPGAAVVVTGPGVVHGLSGLANAQQNCWPMILIGGASETYRGGMGAFQEERQVLIASPFCKFAHGIESVARIPFYVEMATRNAIYGRPGATYLDMPDDIIRGTCETDKIAQAERVPEAPRSVAPAENVEAALDLLEKAQRPLVLLGKGMAWSRGEDEVRAFIERTQVPFVRSPMGKGVMPDDHPLSASAARTLALQQADVIFLMGARLNWIFHFGLPPRYAKDVKVIQLDIAPEEIGHNKPTEVALVGDGKAIMAQLNKALVNRQWFHPKDTPWRQALTKKAAENVATIKPQVDDDQGPAGYYRALRDVAAWMPKNAILSAEGANTMDIGLTQLASSNARSVLNAGTYGTMGVGLGQAIAAAVSDPSRPVIHLSGDSAIGFSGMEMETLVRYNLPVKIVVLNNGGIGPGMPEIPENPMFNLKPNALIYGARYDKVMEAFGGKGIFVKEPKDIRKALDEAMAFKGPALVNVVLSQGSTRKAQQFAWHS
modifications: Rhodospirillales bacterium URHD0017 engineered 2-hydroxyphytanoyl-CoA lyase
- Product flux, substrate Acetaldehyde, product Lactate [1]: 78.1 μM/OD/h
- tartronic acid productivity of best candidate [2]: up to 13 μM/hr per OD600
- Product flux, substrate Succinic semialdehyde, product 2-hydroxyglutarate [3]: 15.2 μM/OD/h
